In patent US20180360972A1 (REGENTS OF THE UNIVERSITY OF MINNESOTA, published 2018):
One block for each binder: values may come before it. Square brackets hold non-standard residues; d marks the D form. d2Nal = N[C@H](Cc1ccc2ccccc2c1)C(=O)O

Key:
[1] = target: hMC4R PRESTO-Tango plasmid construct, transiently expressed in HTLA cells (human, UniProt P32245 1-332); assay: cell-based or functional assay
[2] = target: T1, mMC4R-HaloTag fusion protein (mouse, UniProt P56450 1-332, HaloTag NanoBRET 618 ligand bound to the HaloTag); assay: NanoBRET in transiently transfected cells; basal signal with assay buffer set as 100%
T1 construct: whole, on cells; not shown: HaloTag on the C-terminus

[3] = target: human melanocortin-4 receptor (hMC4R), stably expressed in HEK293 cells (human, UniProt P32245 1-332); assay: cell-based or functional assay
Sequence of human melanocortin-4 receptor (hMC4R), stably expressed in HEK293 cells (P32245 whole entry): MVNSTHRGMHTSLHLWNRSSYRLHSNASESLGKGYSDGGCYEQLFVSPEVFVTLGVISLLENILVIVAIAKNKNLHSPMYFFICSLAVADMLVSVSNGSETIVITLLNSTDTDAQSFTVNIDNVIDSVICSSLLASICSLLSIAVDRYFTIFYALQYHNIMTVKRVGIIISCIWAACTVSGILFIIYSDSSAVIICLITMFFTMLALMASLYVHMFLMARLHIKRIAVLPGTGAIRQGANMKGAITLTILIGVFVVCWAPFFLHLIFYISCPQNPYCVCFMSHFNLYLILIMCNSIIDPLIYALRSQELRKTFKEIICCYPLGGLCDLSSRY

Sequence of hMC4R PRESTO-Tango plasmid construct, transiently expressed in HTLA cells (P32245 whole entry, the tested form may be a part): as the sequence (P32245 whole entry) above

β-arrestin recruitment, response at 10 µM relative to the maximal efficacy of NDP-MSH [1]: 30%
Binder: Ac-H[d2Nal]RW-NH2 [CJL-1-80, Ac-His-DNal(2')-Arg-Trp-NH2]

binding result [2]: binds
B1: mMC4R-NanoLuc fusion protein (receptor, mouse, UniProt P56450 1-332, looked up)
chain: MNSTHHHGMYTSLHLWNRSSYGLHGNASESLGKGHPDGGCYEQLFVSPEVFVTLGVISLLENILVIVAIAKNKNLHSPMYFFICSLAVADMLVSVSNGSETIVITLLNSTDTDAQSFTVNIDNVIDSVICSSLLASICSLLSIAVDRYFTIFYALQYHNIMTVRRVGIIISCIWAACTVSGVLFIIYSDSSAVIICLISMFFTMLVLMASLYVHMFLMARLHIKRIAVLPGTGTIRQGTNMKGAITLTILIGVFVVCWAPFFLHLLFYISCPQNPYCVCFMSHFNLYLILIMCNAVIDPLIYALRSQELRKTFKEIICFYPLGGICELSSRY
notes: whole, on cells; not shown: NanoLuc on the C-terminus

cAMP signaling (AlphaScreen), EC50 [3]: 1.9 nM
B2: equal mixture of tetrapeptides CJL-1-14+CJL-1-80 (other)
peptide 1: Ac-H[dF]RW-NH2
peptide 2: Ac-H[d2Nal]RW-NH2
modifications: also: 1:1 mixture of two separate peptides
